This assay addresses T1, purified XPO1-GST (GST-CRM1, Exportin 1) (human, UniProt O14980 1-1071).
T1 construct: Results and legend name the protein of the pull-down XPO1-GST / GST-XPO1, but the methods say that CRM1/XPO1 was cleaved from the beads with TEV protease; also called GST-XPO1; CRM1/XPO1; source: E. coli BL21, purified (glutathione Sepharose 4B)
In words: pull-down; purified RGS14 mixed 2 h with purified XPO1-GST and His-Ran Q69L-GTP; His-Ran captured on Ni-NTA; Coomassie and immunoblot. The following applies: both partners purified. On the technique in general: In western blotting, separated proteins are transferred to a membrane and probed.

T1 sequence (O14980 whole entry): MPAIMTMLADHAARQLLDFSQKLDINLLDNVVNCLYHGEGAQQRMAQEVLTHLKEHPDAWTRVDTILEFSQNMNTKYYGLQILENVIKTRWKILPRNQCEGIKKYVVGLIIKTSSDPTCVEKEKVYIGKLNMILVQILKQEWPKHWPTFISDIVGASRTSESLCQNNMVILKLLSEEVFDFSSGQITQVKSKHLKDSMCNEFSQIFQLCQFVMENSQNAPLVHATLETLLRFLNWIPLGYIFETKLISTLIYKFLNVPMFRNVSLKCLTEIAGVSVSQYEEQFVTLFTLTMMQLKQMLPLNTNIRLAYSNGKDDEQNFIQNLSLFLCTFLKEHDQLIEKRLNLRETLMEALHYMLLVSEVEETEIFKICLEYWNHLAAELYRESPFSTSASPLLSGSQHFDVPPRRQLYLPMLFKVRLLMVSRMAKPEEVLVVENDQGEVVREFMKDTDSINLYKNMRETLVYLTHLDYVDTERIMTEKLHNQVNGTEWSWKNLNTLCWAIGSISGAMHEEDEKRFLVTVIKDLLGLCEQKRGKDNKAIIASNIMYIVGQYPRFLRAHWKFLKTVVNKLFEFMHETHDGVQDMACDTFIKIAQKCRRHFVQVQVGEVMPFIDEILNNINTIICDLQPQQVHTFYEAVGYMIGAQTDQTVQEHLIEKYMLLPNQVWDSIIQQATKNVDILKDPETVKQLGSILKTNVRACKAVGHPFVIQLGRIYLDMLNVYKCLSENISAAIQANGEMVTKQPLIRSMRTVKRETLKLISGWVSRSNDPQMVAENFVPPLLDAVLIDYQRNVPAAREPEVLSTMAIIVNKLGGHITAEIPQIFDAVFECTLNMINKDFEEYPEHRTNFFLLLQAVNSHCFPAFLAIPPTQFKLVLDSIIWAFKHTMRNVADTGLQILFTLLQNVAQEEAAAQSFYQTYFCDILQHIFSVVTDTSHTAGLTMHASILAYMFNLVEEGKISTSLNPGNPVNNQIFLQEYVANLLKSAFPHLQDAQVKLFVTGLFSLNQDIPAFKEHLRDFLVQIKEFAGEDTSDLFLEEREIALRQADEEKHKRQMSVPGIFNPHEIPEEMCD

B1: recombinant RGS14 WT, purified from E. coli (natural protein, rat, UniProt O08773 1-544, looked up)
chain: MPGKPKHLGVPNGRMVLAVSDGELTSTSGSQAQGEGRGSSLSIHSLPSGPSSPFSTDEQPVASWAQSFERLLQDPRGLAYFTEFLKKEFSAENVTFWQACERFQQIPASDTKQLAQEAHNIYHEFLSSQALSPVNIDRQAWLSEEVLAQPRPDMFRAQQLQIFNLMKFDSYARFVKSPLYQECLLAEAEGRPLREPGSSHLGSPDTARKKPKLKPGKSLPLGVEELGQLPLAEGRPLRKSFRREMPGGAVNSALRRESQGSLNSSASLDLGFLAFVSSKSESHRKSLGSGEGESESRPGKYCCVYLPDGTASLALARPGLTIRDMLAGICEKRGLSLPDIKVYLVGKEQKALVLDQDCTVLADQEVRLENRITFQLELVGLERVVRISAKPTKRLQEALQPILAKHGLSLDQVVLHRPGEKQLVDLENLVSSVASQTLVLDTLPDAKTREASSIPPCRSQGCLPRTQTKDSHLPPLSSSLSVEDASGSTGKRQTCDIEGLVELLNRVQSSGAHDQRGLLRKEDLVLPEFLQLPSQRPGSQEAPP
notes: RGS14, rat; expressed as MBP-TEV-RGS14 (the constructs paragraph names pLic-GST); The methods call the fusion MBP-TEV-RGS14 but purify it on a glutathione column and name the vector pLic-GST; the carrier may have been GST; also called WT RGS14; not shown: MBP, N-terminal, cleaved
As to B1, the binding result is given as “binds”.

The record behind these values is paper PMC7949046, “Human genetic variants disrupt RGS14 nuclear shuttling and regulation of LTP in hippocampal neurons” (The Journal of Biological Chemistry, 2020).
